# Values joined by “and” are separate entries in the source; they are usually repeats but may differ in a detail not shown here. Equal values may be shown once. Where no end group is shown, it is not given here. [ ]: non-standard residue; d: D form. pGlu = O=C1CC[C@@H](C(=O)O)N1
# Tests used:
# [1] = target: T1, Human IGF-1R (HIGF-1R), purified from BHK cells stably transfected with IGF-1R cDNA (human, UniProt P08069 31-1367); test: competition with 125I-IGF-1 on purified HIGF-1R (PEG or SPA assay; the sentence does not say which)
# T1 construct: mature; Detergent-solubilised whole receptor, not on cells; form 'mature' is my reading of 'purified from ... cells stably transfected with IGF-1R cDNA'; also called human insulin-like growth factor-1 receptor; purified HIGF-1R
# T1 sequence (P08069 31-1367 limits assumed): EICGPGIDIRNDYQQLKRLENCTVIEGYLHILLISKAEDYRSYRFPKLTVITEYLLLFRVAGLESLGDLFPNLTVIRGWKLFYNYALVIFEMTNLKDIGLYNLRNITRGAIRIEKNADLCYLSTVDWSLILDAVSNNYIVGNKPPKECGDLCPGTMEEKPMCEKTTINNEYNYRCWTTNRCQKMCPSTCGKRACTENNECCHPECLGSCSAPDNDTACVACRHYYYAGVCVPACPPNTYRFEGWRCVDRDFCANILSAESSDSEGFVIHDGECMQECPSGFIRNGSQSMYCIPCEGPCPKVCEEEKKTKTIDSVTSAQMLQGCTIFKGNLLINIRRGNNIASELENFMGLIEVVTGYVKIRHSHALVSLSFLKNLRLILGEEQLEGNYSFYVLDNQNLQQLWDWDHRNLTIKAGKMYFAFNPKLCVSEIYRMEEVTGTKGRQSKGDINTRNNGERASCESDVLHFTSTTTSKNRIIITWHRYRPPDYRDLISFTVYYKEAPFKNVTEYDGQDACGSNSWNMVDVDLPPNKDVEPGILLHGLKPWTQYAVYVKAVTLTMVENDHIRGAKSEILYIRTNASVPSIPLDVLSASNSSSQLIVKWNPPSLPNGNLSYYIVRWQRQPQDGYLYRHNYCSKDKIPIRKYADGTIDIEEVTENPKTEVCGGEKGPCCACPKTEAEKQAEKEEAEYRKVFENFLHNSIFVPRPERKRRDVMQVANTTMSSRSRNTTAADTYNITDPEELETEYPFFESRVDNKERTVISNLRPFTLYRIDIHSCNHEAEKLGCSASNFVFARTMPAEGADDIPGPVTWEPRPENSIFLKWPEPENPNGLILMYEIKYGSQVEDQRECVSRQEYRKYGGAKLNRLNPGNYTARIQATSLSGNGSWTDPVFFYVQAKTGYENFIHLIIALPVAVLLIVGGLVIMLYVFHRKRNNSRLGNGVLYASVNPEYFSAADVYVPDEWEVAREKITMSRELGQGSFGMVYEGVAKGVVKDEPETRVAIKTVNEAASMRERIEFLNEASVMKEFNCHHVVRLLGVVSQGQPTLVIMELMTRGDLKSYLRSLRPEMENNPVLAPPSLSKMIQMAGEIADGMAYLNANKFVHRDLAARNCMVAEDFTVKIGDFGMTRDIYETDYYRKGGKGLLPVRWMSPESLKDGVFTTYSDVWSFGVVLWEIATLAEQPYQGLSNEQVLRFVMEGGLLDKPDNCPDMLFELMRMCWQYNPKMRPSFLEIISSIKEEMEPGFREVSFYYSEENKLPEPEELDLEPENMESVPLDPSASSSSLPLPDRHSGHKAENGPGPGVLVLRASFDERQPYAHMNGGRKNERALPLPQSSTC
# [2] = target: IGF-1R on SW480, MCF-7 and MiaPaCa cells (human, UniProt P08069 31-1367); test: cell-based or functional assay
# IGF-1R on SW480, MCF-7 and MiaPaCa cells, sequence (P08069 31-1367): as the sequence (P08069 31-1367 limits assumed) above
# [3] = target: T1, Human IGF-1R (HIGF-1R), purified from …; test: cell-based or functional assay
# IGF-1R on L6 cells [4] = test: cell-based or functional assay
# Target sequence in this assay (P24062 31-737, chain 1 of 2): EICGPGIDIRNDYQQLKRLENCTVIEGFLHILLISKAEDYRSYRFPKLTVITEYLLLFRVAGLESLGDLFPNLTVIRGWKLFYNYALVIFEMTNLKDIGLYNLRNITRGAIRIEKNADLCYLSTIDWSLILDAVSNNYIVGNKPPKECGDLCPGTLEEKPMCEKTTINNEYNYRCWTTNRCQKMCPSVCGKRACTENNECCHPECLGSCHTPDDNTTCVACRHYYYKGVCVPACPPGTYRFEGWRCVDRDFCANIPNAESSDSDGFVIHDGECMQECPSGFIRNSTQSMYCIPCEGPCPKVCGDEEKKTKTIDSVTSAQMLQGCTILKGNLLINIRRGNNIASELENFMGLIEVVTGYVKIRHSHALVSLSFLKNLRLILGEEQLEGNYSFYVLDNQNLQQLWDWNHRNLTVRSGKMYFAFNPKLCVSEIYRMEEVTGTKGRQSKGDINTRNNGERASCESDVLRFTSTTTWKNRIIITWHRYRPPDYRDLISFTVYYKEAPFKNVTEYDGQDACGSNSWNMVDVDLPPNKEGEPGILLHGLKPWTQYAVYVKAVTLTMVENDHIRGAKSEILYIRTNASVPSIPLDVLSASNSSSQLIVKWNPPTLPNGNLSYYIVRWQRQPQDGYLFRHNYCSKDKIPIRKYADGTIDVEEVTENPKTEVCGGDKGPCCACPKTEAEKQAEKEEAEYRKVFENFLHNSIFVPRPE
# Target sequence in this assay (P24062 742-1370, chain 2 of 2): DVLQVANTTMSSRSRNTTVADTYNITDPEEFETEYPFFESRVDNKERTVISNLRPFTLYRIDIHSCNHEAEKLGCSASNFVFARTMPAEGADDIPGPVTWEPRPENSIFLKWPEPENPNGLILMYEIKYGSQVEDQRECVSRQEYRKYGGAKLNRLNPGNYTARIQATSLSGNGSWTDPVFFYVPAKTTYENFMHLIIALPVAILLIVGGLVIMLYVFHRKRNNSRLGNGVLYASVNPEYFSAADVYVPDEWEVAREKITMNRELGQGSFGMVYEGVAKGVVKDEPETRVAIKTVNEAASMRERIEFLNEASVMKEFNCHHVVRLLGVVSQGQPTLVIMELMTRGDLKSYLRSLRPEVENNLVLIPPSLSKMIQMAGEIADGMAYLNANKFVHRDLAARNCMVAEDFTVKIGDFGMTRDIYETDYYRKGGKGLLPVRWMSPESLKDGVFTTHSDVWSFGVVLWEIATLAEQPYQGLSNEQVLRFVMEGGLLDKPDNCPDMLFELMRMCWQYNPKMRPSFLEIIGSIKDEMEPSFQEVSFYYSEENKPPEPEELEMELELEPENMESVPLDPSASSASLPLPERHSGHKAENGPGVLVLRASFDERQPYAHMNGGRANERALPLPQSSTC
# IGF-1R on SW480 cells [5] = target: T2, IGF-1R on SW480 cells (UniProt P08069 31-1367, limits assumed); test: cell-based or functional assay
# T2 sequence (P08069 31-1367 limits assumed): as the sequence (P08069 31-1367 limits assumed) above
# [6] = target: T3, IGF-1R on MCF-7 cells (MCF-7S8, MCF7) (human, UniProt P08069 31-1367); test: cell-based or functional assay
# T3 sequence (P08069 31-1367): as the sequence (P08069 31-1367 limits assumed) above
# IGF-1R on SW480 cells [7] = target: T2, IGF-1R on SW480 cells; test: cell-based or functional assay; remark: listed apart in the source
# [8] = target: Human IGF-1R (HIGF-1R), purified from BHK cells stably transfected with IGF-1R cDNA (human, UniProt P08069 31-1367); test: cell-based or functional assay; remark: listed apart in the source
# Target sequence in this assay (P08069 31-1367 limits assumed): as above
# [9] = target: T3, IGF-1R on MCF-7 cells (MCF-7S8, MCF7); test: cell-based or functional assay; remark: listed apart in the source
# IGF-1R on L6 cells [10] = test: cell-based or functional assay; remark: listed apart in the source
# [11] = target: T4, His-tagged soluble recombinant human IGF-IR (srhIGF-1R-his; R&D systems) (human, UniProt P08069 31-935); test: AlphaScreen competition with biotinylated hIGF-1 on srhIGF-1R-his
# T4 construct: extracellular domain; Bought protein; also called extra-cellular domain of IGF-1R; not shown: His tag
# T4 sequence (P08069 31-935): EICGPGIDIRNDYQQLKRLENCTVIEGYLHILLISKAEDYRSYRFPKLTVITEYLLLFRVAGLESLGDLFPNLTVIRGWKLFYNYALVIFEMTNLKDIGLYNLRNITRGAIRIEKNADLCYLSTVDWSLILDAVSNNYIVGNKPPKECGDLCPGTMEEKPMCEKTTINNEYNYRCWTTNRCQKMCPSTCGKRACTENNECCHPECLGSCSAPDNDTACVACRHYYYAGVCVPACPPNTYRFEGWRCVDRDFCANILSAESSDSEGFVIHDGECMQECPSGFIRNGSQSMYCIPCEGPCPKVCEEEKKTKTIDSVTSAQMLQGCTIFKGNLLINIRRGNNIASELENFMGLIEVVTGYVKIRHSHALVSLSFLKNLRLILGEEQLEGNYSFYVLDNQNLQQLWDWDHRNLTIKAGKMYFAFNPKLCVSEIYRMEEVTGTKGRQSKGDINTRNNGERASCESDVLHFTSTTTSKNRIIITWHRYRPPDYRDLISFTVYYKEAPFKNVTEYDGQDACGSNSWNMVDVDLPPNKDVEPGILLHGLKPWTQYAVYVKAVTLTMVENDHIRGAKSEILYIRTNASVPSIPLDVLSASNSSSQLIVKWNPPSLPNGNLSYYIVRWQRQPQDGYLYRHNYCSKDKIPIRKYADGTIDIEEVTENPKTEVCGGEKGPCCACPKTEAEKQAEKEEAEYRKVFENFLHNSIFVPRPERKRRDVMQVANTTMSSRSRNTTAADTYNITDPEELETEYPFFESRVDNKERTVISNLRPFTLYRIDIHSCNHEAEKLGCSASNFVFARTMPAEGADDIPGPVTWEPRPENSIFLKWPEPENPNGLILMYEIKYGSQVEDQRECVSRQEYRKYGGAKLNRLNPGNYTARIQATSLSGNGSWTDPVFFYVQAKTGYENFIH
# Procedure: Binding Assays. […] Detection of the receptor ligand interaction was measured in an amplified luminescent proximity homogeneous assay (ALPHAScreen; BioSignal-Packard, Montreal). The assay was performed in 384-well Nunc™ white polystyrene microplates (Nalge Nunc International, Naperville, Ill.) with a final volume of 40 μL. […] Each concentration of competitor was assayed in duplicate. […] The second step of the assay was to add acceptor beads and the incubation continued for 0.5 hr. The final step was to add donor beads and the incubation continued for an additional 1 hr. […] Primary data were background corrected, normalized to buffer controls and then expressed as % Specific Binding. The data were fit to a four-parameter non-linear regression analysis (y=min+(max-min)/(1+10̂((log IC₅₀-x)*Hillslope))), which was used to determine IC₅₀ values. The Z′-factor for this assay is greater than 0.7 (Z′=1-(3σ++3σ−)/|μ+−μ−|) and the signal-to-background (SB) ratio was between 40 and 70.
binder,measurement,setting,value
ESFYSCLASLVAGTPWPKGGSWERCREE [F230],Kd,[1],20 to 50 nM
ESYGDCRDRPCGDAPNFYDWFVQQASE [F270],"IC50, IGF-1 dependent growth in SW480",[2],2000 nM
"SFYSCLESLVAGPAEKSRGQWEGCRK [F259, listing 1 of 2 here]","IC50, IGF-1R kinase activation by IGF-1",[3],200 nM and 300 nM
"SFYSCLESLVQGPAEKSRGQWEGCRK [F293, listing 1 of 2 here]","IC50, growth of L6 cells stimulated by IGF-1 at 3 nM",IGF-1R on L6 cells [4],> 10000 nM
same,"IC50, phosphorylation of IGF-1R and MAPK42/44 in response to IGF-1 treatment",IGF-1R on L6 cells [4],500 nM
same,"IC50, IGF-1 dependent growth in MCF-7 cells",[2],10000 nM
same,Kd,[1],90 nM
FVQDDCRGRPCGDADSFYEWFDQQAGYGSSSRRAPQT [F364],Kd,[1],50 nM
"SFYSCLESLVAGPAEKSRGQWEGCRK [F259, listing 2 of 2 here]",IC50 in SW480 (M) in presence of IGF-1,IGF-1R on SW480 cells [5],2e-06 M
same,"IC50 in MCF-7S8, in presence of IGF-1",[6],5000 nM and 2000 nM
same,"IC50, IGF-1 (10 nM)-induced proliferation of SW480 cells, exp. 13262-014",IGF-1R on SW480 cells [7],> 10000 nM
ESFYSCLESLVNGPAEKSRGQWDGCRE [F215],Kd,[1],80 to 300 nM
EGRVDDAFYEWFERQLGE [F213],IC50 in SW480 (M) in presence of IGF-1,IGF-1R on SW480 cells [5],2e-06 M
same,"IC50 in MCF-7S8, in presence of IGF-1",[6],2000 nM
EDWLRCLGVILSGGLTELANTGCVQGE [F167],"IC50 in kinase assay (M), IGF-1R kinase activation by 10 nM IGF-1",[8],1e-06 M
SFYSCLESLVTGPAEKSRGQWEGCRK [F292],IC50 in SW480 (M) in presence of IGF-1,IGF-1R on SW480 cells [5],1e-07 M
same,"IC50 in SW480 (M), peptide alone",IGF-1R on SW480 cells [5],1e-06 M
same,"IC50 in MCF-7S8, in presence of IGF-1",[6],1000 nM
SFYDCLLDLSIGGPSSDWRRRCITA [F441],MCF7 IC50,[9],240 nM and 180 nM
"QFYGCLLDLSLGVPSFGWRRRCITA [F138, listing 1 of 2 here]","IC50 in MCF-7S8, in presence of IGF-1",[6],500 nM
same,"IC50, down regulation of 3 nM IGF-1 stimulation to basal level, IRS-1, L6 cells",IGF-1R on L6 cells [10],300 nM
same,"IC50, down regulation of 3 nM IGF-1 stimulation to basal level, MAPK42, L6 cells",IGF-1R on L6 cells [10],300 nM
same,"IC50, down regulation of 3 nM IGF-1 stimulation to basal level, MAPK44, L6 cells",IGF-1R on L6 cells [10],300 nM and 100 nM
same,"IC50, down regulation of 3 nM IGF-1 stimulation to basal level, PKB/Akt, L6 cells",IGF-1R on L6 cells [10],300 nM and 100 nM
DFYGCLLDLSLGVPSLGWRRRCITA [F429],"IC50, IGF-1 (10 nM)-induced proliferation of SW480 cells, exp. 13717-019",IGF-1R on SW480 cells [7],500 nM
same,"IC50, IGF-1 (10 nM)-induced proliferation of SW480 cells, exp. 13717-027",IGF-1R on SW480 cells [7],1000 nM
same,"IC50, down regulation of 3 nM IGF-1 stimulation to basal level, IGF-IR, L6 cells",IGF-1R on L6 cells [10],50 nM
same,"IC50, down regulation of 3 nM IGF-1 stimulation to basal level, IRS-1, L6 cells",IGF-1R on L6 cells [10],40 nM
same,"IC50, down regulation of 3 nM IGF-1 stimulation to basal level, MAPK42, L6 cells",IGF-1R on L6 cells [10],300 nM
same,"IC50, down regulation of 3 nM IGF-1 stimulation to basal level, MAPK44, L6 cells",IGF-1R on L6 cells [10],100 nM
same,"IC50, down regulation of 3 nM IGF-1 stimulation to basal level, PKB/Akt, L6 cells",IGF-1R on L6 cells [10],100 nM
[pGlu]FYGCLLDLSLGVPSFGWRRRCITA (cysteine pairing not given here) [F138P],"IC50, IGF-1 dependent growth in SW480",[2],500 nM
DFYGCLLDLSLGVPSLGWRRRCIT (also called Peptide 428) [F428],"IC50, IGF-1 dependent growth of SW480",[2],500 nM and 1000 nM
RQWDCRGRPCGDAESFYEWFDQQRS [F264],"IC50, IGF-1 dependent growth in SW480 cells",[2],> 1000 nM
"QFYGCLLDLSLGVPSFGWRRRCITA [F138, listing 2 of 2 here]","IC50, IGF-1 dependent growth in MCF-7",[2],500 nM
same,"IC50, IGF-1 dependent growth in SW480",[2],150 nM
same,Kd,[1],6 to 10 nM
SFYSCLESLVNGPAEKSRGQWDGCRK [F250],IC50 in SW480 (M) in presence of IGF-1,IGF-1R on SW480 cells [5],2e-06 M and 1e-06 M
same,"IC50 in MCF-7S8, in presence of IGF-1",[6],2000 nM
"SFYSCLESLVQGPAEKSRGQWEGCRK [F293, listing 2 of 2 here]","IC50 in SW480 (M), peptide alone",IGF-1R on SW480 cells [5],1e-07 M
same,"IC50 in MCF-7S8, in presence of IGF-1",[6],10000 nM
same,"IC50 in MCF-7S8, peptide alone",[6],> 10000 nM
same,"IC50 in kinase assay (M), IGF-1R kinase activation by 10 nM IGF-1",[8],1e-07 M
same,"IC50, down regulation of 3 nM IGF-1 stimulation to basal level, IGF-IR, L6 cells",IGF-1R on L6 cells [10],500 nM
same,"IC50, down regulation of 3 nM IGF-1 stimulation to basal level, IRS-1, L6 cells",IGF-1R on L6 cells [10],> 1000 nM
same,"IC50, down regulation of 3 nM IGF-1 stimulation to basal level, MAPK42, L6 cells",IGF-1R on L6 cells [10],1000 nM
same,"IC50, down regulation of 3 nM IGF-1 stimulation to basal level, MAPK44, L6 cells",IGF-1R on L6 cells [10],500 nM
same,"IC50, down regulation of 3 nM IGF-1 stimulation to basal level, PKB/Akt, L6 cells",IGF-1R on L6 cells [10],> 1000 nM
same,IC50,[11],9 nM
EFGRGYGGDGGGYWSGYEWLAE [F207],IC50 in SW480 (M) in presence of IGF-1,IGF-1R on SW480 cells [5],2e-06 M
same,"IC50 in MCF-7S8, in presence of IGF-1",[6],2000 nM
same,"IC50 in kinase assay (M), IGF-1R kinase activation by 10 nM IGF-1",[8],2e-07 M
EVDRDCQARPCGDAANFYDWFGQQGTE [F269],IC50 in SW480 (M) in presence of IGF-1,IGF-1R on SW480 cells [5],5e-07 M
same,"IC50 in SW480 (M), peptide alone",IGF-1R on SW480 cells [5],> 1e-05 M
same,"IC50 in kinase assay (M), IGF-1R kinase activation by 10 nM IGF-1",[8],8e-07 M
EISFRCQLFVLAGMHPCPVDVGGEGFE [F170],"IC50 in MCF-7S8, in presence of IGF-1",[6],2000 nM
TFYSCLASLLTGTPQPNRGPWERCR [RP6],IC50,[11],2700 nM
QFYGCLLDLSLGVPSFGWKKKCITA [F392],"IC50, IGF-1 dependent growth of SW480",[2],800 nM
EFSGFCMGLERLSQVSLGYCGAGQGGE [F169],IC50 in SW480 (M) in presence of IGF-1,IGF-1R on SW480 cells [5],2e-06 M
same,"IC50 in MCF-7S8, in presence of IGF-1",[6],2000 nM

# Source: patent US20110039779A1 (published 2011)
